Legend:
Assay in all cases: cell-based or functional assay
[1] = molecular target: HIV-1 Env of isolate 93IN905 (HIV-1)
[2] = molecular target: HIV-1 Env of isolate 93MW959 (HIV-1)
[3] = molecular target: HIV-1 Env of isolate 97ZA012 (HIV-1)
[4] = molecular target: HIV-1 Env of isolate 98IN022 (HIV-1)
[5] = molecular target: HIV-1 Env of isolate JRCSF (HIV-1) (UniProt P20871)
[6] = molecular target: HIV-1 Env of isolate MGRM-Chronic-B-010 (HIV-1)
[7] = molecular target: HIV-1 Env of isolate MGRM-Chronic-B-011 (HIV-1)
[8] = molecular target: HIV-1 Env of isolate MGRM-Chronic-B-012 (HIV-1)
[9] = molecular target: HIV-1 Env of isolate MGRM-Chronic-B-017 (HIV-1)
[10] = molecular target: HIV-1 Env of isolate MGRM-Chronic-B-018 (HIV-1)
[11] = molecular target: HIV-1 Env of isolate MGRM-Chronic-B-020 (HIV-1)
[12] = molecular target: HIV-1 Env of isolate MGRM-Chronic-B-023 (HIV-1)
[13] = molecular target: HIV-1 Env of isolate MGRM-Chronic-B-024 (HIV-1)
[14] = molecular target: HIV-1 Env of isolate MGRM-D-011 (HIV-1)
[15] = molecular target: HIV-1 Env of isolate MGRM-D-012 (HIV-1)
[16] = molecular target: HIV-1 Env of isolate MGRM-D-013 (HIV-1)
[17] = molecular target: HIV-1 Env of isolate MGRM-D-014 (HIV-1)
[18] = molecular target: HIV-1 Env of isolate MGRM-D-016 (HIV-1)
[19] = molecular target: HIV-1 Env of isolate MGRM-D-018 (HIV-1)
[20] = molecular target: HIV-1 Env of isolate MGRM-D-019 (HIV-1)
[21] = molecular target: HIV-1 Env of isolate MGRM-D-020 (HIV-1)
[22] = molecular target: HIV-1 Env of isolate MGRM-D-021 (HIV-1)
[23] = molecular target: HIV-1 Env of isolate MGRM-D-022 (HIV-1)
[24] = molecular target: HIV-1 Env of isolate MGRM-D-024 (HIV-1)
[25] = molecular target: HIV-1 Env of isolate MGRM-D-026 (HIV-1)
[26] = molecular target: HIV-1 Env of isolate MGRM-D-028 (HIV-1)
[27] = molecular target: HIV-1 Env of isolate MGRM-D-029 (HIV-1)
[28] = molecular target: HIV-1 Env of isolate MGRM-F1-004 (HIV-1)
[29] = molecular target: HIV-1 Env of isolate MGRM-F1-006 (HIV-1)
[30] = molecular target: HIV-1 Env of isolate MGRM-F1-008 (HIV-1)
[31] = molecular target: HIV-1 Env of isolate MGRM-F1-010 (HIV-1)
[32] = molecular target: HIV-1 Env of isolate MGRM-F1-012 (HIV-1)
[33] = molecular target: HIV-1 Env of isolate MGRM-F1-013 (HIV-1)
[34] = molecular target: HIV-1 Env of isolate MGRM-F1-014 (HIV-1)
[35] = molecular target: HIV-1 Env of isolate MGRM-F1-015 (HIV-1)
[36] = molecular target: HIV-1 Env of isolate MGRM-F1-016 (HIV-1)
[37] = molecular target: HIV-1 Env of isolate MGRM-F1-017 (HIV-1)
[38] = molecular target: HIV-1 Env of isolate MGRM-F1-018 (HIV-1)
[39] = molecular target: HIV-1 Env of isolate MGRM-F1-020 (HIV-1)
[40] = molecular target: HIV-1 Env of isolate MGRM-F1-021 (HIV-1)
[41] = molecular target: HIV-1 Env of isolate MGRM-F1-022 (HIV-1)
[42] = molecular target: HIV-1 Env of isolate MGRM-F1-023 (HIV-1)
[43] = molecular target: HIV-1 Env of isolate NL43 (HIV-1)
[44] = molecular target: HIV-1 Env of isolate PVO.4 (HIV-1)
[45] = molecular target: HIV-1 Env of isolate QH0692.42 (HIV-1)
[46] = molecular target: HIV-1 Env of isolate SC422661.8 (HIV-1)
[47] = molecular target: HIV-1 Env of isolate SF162 (HIV-1) (UniProt P19550)
[48] = molecular target: HIV-1 Env of isolate THR0.18 (HIV-1)
[49] = molecular target: HIV-1 Env of isolate TRJ04551.58 (HIV-1)
[50] = molecular target: HIV-1 Env of isolate TRO.11 (HIV-1)
[51] = molecular target: HIV-1 Env of isolate VLGCB3 (HIV-1)
[52] = molecular target: HIV-1 Env of isolate 92TH021 (HIV-1)
[53] = molecular target: HIV-1 Env of isolate MGRM-C-026 (HIV-1)
[54] = molecular target: HIV-1 92TH021 envelope glycoprotein (Env) on pseudovirus (HIV-1)
[55] = molecular target: HIV-1 92UG024 envelope glycoprotein (Env) on pseudovirus (HIV-1)
[56] = molecular target: HIV-1 MGRM-D-018 envelope glycoprotein (Env) on pseudovirus (HIV-1)

PGT-141 (antibody), sequence (VH): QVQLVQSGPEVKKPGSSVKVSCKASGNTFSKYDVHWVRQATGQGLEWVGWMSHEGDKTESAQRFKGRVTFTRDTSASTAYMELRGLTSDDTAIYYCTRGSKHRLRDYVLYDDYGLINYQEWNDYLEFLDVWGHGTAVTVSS
PGT-141 (antibody), sequence (VL): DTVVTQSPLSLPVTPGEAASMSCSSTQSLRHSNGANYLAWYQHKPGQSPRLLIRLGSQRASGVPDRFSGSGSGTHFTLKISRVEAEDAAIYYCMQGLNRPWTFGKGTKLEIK

**Q.** What does the source list for PGT-141 (antibody)?
**A.** neutralization IC50 [1]: 0.001 µg/mL; neutralization IC50 [2]: 0.003 µg/mL; neutralization IC50 [3]: > 50 µg/mL; neutralization IC50 [4]: 0.001 µg/mL; neutralization IC50 [5]: 0.009 µg/mL; neutralization IC50 [6]: > 50 µg/mL; neutralization IC50 [7]: 2.24 µg/mL; neutralization IC50 [8]: > 50 µg/mL; neutralization IC50 [9]: 0.147 µg/mL; neutralization IC50 [10]: 0.572 µg/mL; neutralization IC50 [11]: > 50 µg/mL; neutralization IC50 [12]: 0.318 µg/mL; neutralization IC50 [13]: 0.011 µg/mL; IC50, pseudovirus neutralization [14]: > 50 µg/mL; IC50, pseudovirus neutralization [15]: > 50 µg/mL; IC50, pseudovirus neutralization [16]: 0.179 µg/mL; IC50, pseudovirus neutralization [17]: 0.01 µg/mL; IC50, pseudovirus neutralization [18]: > 50 µg/mL; IC50, pseudovirus neutralization [19]: > 50 µg/mL; IC50, pseudovirus neutralization [20]: 1.66 µg/mL; IC50, pseudovirus neutralization [21]: > 50 µg/mL; IC50, pseudovirus neutralization [22]: > 50 µg/mL; IC50, pseudovirus neutralization [23]: > 50 µg/mL; IC50, pseudovirus neutralization [24]: > 50 µg/mL; IC50, pseudovirus neutralization [25]: 32.5 µg/mL; IC50, pseudovirus neutralization [26]: < 50 µg/mL; IC50, pseudovirus neutralization [27]: 0.057 µg/mL; IC50, pseudovirus neutralization [28]: 0.021 µg/mL; IC50, pseudovirus neutralization [29]: 8.99 µg/mL; IC50, pseudovirus neutralization [30]: 0.193 µg/mL; IC50, pseudovirus neutralization [31]: > 50 µg/mL; IC50, pseudovirus neutralization [32]: > 50 µg/mL; IC50, pseudovirus neutralization [33]: 0.043 µg/mL; IC50, pseudovirus neutralization [34]: 0.001 µg/mL; IC50, pseudovirus neutralization [35]: > 50 µg/mL; IC50, pseudovirus neutralization [36]: > 50 µg/mL; IC50, pseudovirus neutralization [37]: 30.8 µg/mL; IC50, pseudovirus neutralization [38]: 0.785 µg/mL; IC50, pseudovirus neutralization [39]: 1.15 µg/mL; IC50, pseudovirus neutralization [40]: > 50 µg/mL; IC50, pseudovirus neutralization [41]: 0.114 µg/mL; IC50, pseudovirus neutralization [42]: 0.307 µg/mL; neutralization IC50 [43]: > 50 µg/mL; neutralization IC50 [44]: 0.113 µg/mL; neutralization IC50 [45]: > 50 µg/mL; neutralization IC50 [46]: 1.66 µg/mL; neutralization IC50 [47]: > 50 µg/mL; neutralization IC50 [48]: 0.007 µg/mL; neutralization IC50 [49]: > 50 µg/mL; neutralization IC50 [50]: 0.383 µg/mL; neutralization IC50 [51]: > 50 µg/mL

**Q.** Which Primary Neutralization Index (B cell culture well 5113 D22) [52] does the source give for “PGT-132 (B cell culture well 5113_D22) (antibody)” here?
**A.** 51

**Q.** And the Primary Neutralization Index (B cell culture well 5113 D22) [5]?
**A.** 3

**Q.** And the Primary Neutralization Index (B cell culture well 5113 D22) [53]?
**A.** 6

**Q.** Which IC50, pseudovirus neutralization [54] does the source give for “1496_C09 (PG9) (TCN-109) monoclonal antibody” here?
**A.** 0.103 µg/mL

**Q.** And the IC50, pseudovirus neutralization [55]?
**A.** 1.91 µg/mL

**Q.** And the IC50, pseudovirus neutralization [56]?
**A.** 0.0444 µg/mL

From patent US20200024330A1
